The results in this text go back to the RNAGym collection of RNA variant scans (doi:10.7554/elife.80360).

To fix the notation:
B1: CPEB3 Ribozyme (parent)
chain: GGGGGCCACAGCAGAAGCGUUCACGUCGCGGCCCCUGUCAGAUUCUGGUGAAUCUGCGAAUUCUGCUGU

Variants of B1 are the subject of this series. The series is described as follows: self-cleavage, relative activity (ratio to wild type); higher = more cleavage; co-transcriptional.
As for GGGGACCACACCAGAAGCGUUCACGUCGCGGCCCCUGUCAGAUUCUGGUGAAUCUGCGAAUUCUGCUGU, the self-cleavage amounted to 0.578. The result for GGGGACCACAGCAGAAGCGUUCACGUCGCGGCCCCUGUCAGAAUCUGGUGAAUCUGCGAAUUCUGCUGU reads 0.721; that for GGGGACCACAGCAGAAGCGUUCACGUCGCGGCCCCUGUCAGAGUCUGGUGAAUCUGCGAAUUCUGCUGU, 0.578; that for GGGGACCACAGCAGAAGCGUUCACGUCGCGGCCCCUGUCAGACUCUGGUGAAUCUGCGAAUUCUGCUGU, 0.77. The result for GGGGACCACAGCAGAAGCGUUCACGUCGCGGCCCCUGUCAGAUUCUGAUGAAUCUGCGAAUUCUGCUGU reads 0.918; that for GGGGACCACAGCAGAAGCGUUCACGUCGCGGCCCCUGUCACAUUCUGGUGAAUCUGCGAAUUCUGCUGU, 0.359. With GGGGACCACAGCAGAAGCGUUCACGUCGCGGCCCCUGUCAAAUUCUGGUGAAUCUGCGAAUUCUGCUGU the figure was 0.512; with GGGGACCACAGCAGAAGCGUUCACGUCGCGGCCCCUGUCAUAUUCUGGUGAAUCUGCGAAUUCUGCUGU, 0.488. Turning to GGGGACCACAGCAGAAGCGUUCACGUCGCGACCCCUGUCAGAUUCUGGUGAAUCUGCGAAUUCUGCUGU, the self-cleavage is 0.158. The result for GGGGACCACAGCAGAAGCGUUCACGUCGCGCCCCCUGUCAGAUUCUGGUGAAUCUGCGAAUUCUGCUGU reads 0.118. The result for GGGGACCACAGCAGAAGCGUUCACGUCGCGUCCCCUGUCAGAUUCUGGUGAAUCUGCGAAUUCUGCUGU reads 0.221; that for GGGGACCACAGCAGAAGCGUUCACGUCGCGGCCGCUGUCAGAUUCUGGUGAAUCUGCGAAUUCUGCUGU, 0.155; that for GGGGACCACAGCAGAAGCGUUCACGUCGCGGCCCCUGUCAGAUUCCGGUGAAUCUGCGAAUUCUGCUGU, 0.945.

In the case of GGGGACCACAGCAGAAGCGUUCACGUCGCGGCCCCUGUCAGAUUCUGGUGAAUCUGCAAAUUCUGCUGU, the self-cleavage came out at 0.723. The result for GGGGACCACAGCAGAAGCGUUCACGUCGCGGCCCCUGUCAGAUUCUGGUGAAUCUGCUAAUUCUGCUGU reads 0.906; that for GGGGACCACAGCAGAAGCGUUCACGUCGCGGCCCCUGUCAGAUUCUGGUGAAUCUGCCAAUUCUGCUGU, 0.758. The result for GGGGACCACAGCAGAAGCGUUCACGUCGCGGCCCCAGUCAGAUUCUGGUGAAUCUGCGAAUUCUGCUGU reads 0.146; that for GGGGACCACAGCAGAAGCGUUCACGUCGCGGCCCCUGUCAGAUCCUGGUGAAUCUGCGAAUUCUGCUGU, 0.858; that for GGGGACCACAGCAGAAGCGUUCACGUCGCGGCCCCUGUCAGAUACUGGUGAAUCUGCGAAUUCUGCUGU, 0.655.

Consider GGGGACCACAGCAGAAGCGUUCACGUCGCGGCCCCUGUCAGAUGCUGGUGAAUCUGCGAAUUCUGCUGU, for which the self-cleavage is 0.631.

In the case of GGGGACCACAGCAGAAGCGUUCACGUCGCGGCCCCUGUAAGAUUCUGGUGAAUCUGCGAAUUCUGCUGU, the self-cleavage was 0.533. The result for GGGGACCACAGCAGAAGCGUUCACGUCGCGGCCCCUGUGAGAUUCUGGUGAAUCUGCGAAUUCUGCUGU reads 0.752.

Consider GGGGACCACAGCAGAAGCGUUCACGUCGCUGCCCCUGUCAGAUUCUGGUGAAUCUGCGAAUUCUGCUGU, for which the self-cleavage was determined as 0.125.

Turning to GGGGACCACAGCAGAAGCGUUCACGUCACGGCCCCUGUCAGAUUCUGGUGAAUCUGCGAAUUCUGCUGU, the self-cleavage is 0.1. With GGGGACCACAGCAGAAGCGUUCACGUCUCGGCCCCUGUCAGAUUCUGGUGAAUCUGCGAAUUCUGCUGU the figure was 0.144; with GGGGACCACAGCAGAAGCGUUCACGUCCCGGCCCCUGUCAGAUUCUGGUGAAUCUGCGAAUUCUGCUGU, 0.124. Consider GGGGACCACAGCAGAAGCCUUCACGUCGCGGCCCCUGUCAGAUUCUGGUGAAUCUGCGAAUUCUGCUGU, for which the self-cleavage was found to be 0.0992. For GGGGACCACAGCAGAAGCAUUCACGUCGCGGCCCCUGUCAGAUUCUGGUGAAUCUGCGAAUUCUGCUGU, the self-cleavage amounted to 0.12.

Turning to GGGGACCACAGCAGAAGCGUUCACGUCGCGGCCCCUGUCAGAUUCUGGUGAAUCUGCGAAUUCUACUGU, the self-cleavage was 0.812. With GGGGACCACAGCAGAAGCGUUCACGUCGCGGCCCCUGUCAGAUUCUGGUGAAUCUGCGAAUUCUCCUGU the figure was 0.532; with GGGGACCACAGCAGAAGCGUUCACGUCGCGGCCCCUGUCAGAUUCUGGUGAAUCUGCGAAUUCUGCUCU, 0.947. For GGGGACCACAGCAGAAGCGUUCACGUCGCGGCCCCUGUCAGAUUCUGGUGAAUCUGCGAAUUCUGCUUU, the self-cleavage amounted to 0.948. The result for GGGGACCACAGCAGAAGCGUUCACGUCGCGGCCCCUGUCAGAUUCUGGUGAAUCUGCGAAUUCUGCUAU reads 0.976. With GGGGACCACAGCAGAAGCGUUCACAUCGCGGCCCCUGUCAGAUUCUGGUGAAUCUGCGAAUUCUGCUGU, the self-cleavage amounted to 0.114. With GGGGACCACAGCAGAAGCGUUCACUUCGCGGCCCCUGUCAGAUUCUGGUGAAUCUGCGAAUUCUGCUGU the figure was 0.0968; with GGGGACCACAGCAGAAGCGUUCACCUCGCGGCCCCUGUCAGAUUCUGGUGAAUCUGCGAAUUCUGCUGU, 0.137; with GGGGACCACAGCAGAAGCGUUCACGUCGCGGCCCGUGUCAGAUUCUGGUGAAUCUGCGAAUUCUGCUGU, 0.134. With GGGGACCACAGCAGAAGCGUUCACGUCGCGGCCCAUGUCAGAUUCUGGUGAAUCUGCGAAUUCUGCUGU the figure was 0.203; with GGGGACCACAGCAGAAGCGUUCACGUCGCGGCCCUUGUCAGAUUCUGGUGAAUCUGCGAAUUCUGCUGU, 0.365.
